# Results from EP4467153A1, “CONSTRAINED PEPTIDE INHIBITORS OF LRRK2-FADD INTERACTIONS” (University of Georgia Research Foundation, Inc., priority 2023, dated 2024).
# “Also recorded” adds a separate entry of the source. Positions of bridges follow the written chain, without caps; N, C: chain ends. Non-standard residues stand in square brackets, D forms with d. Primed or numbered codes have the meaning given here. FAM = 5(6)-carboxyfluorescein label; S5 = C=CCCC[C@](C)(N)C(=O)O; PEG3′ = PEG3 spacer
# Tests used:
# Assay type in all cases: cell-based
# [1] = target: T1, R1441C-LRRK2 (Homo sapiens, UniProt Q5S007, R1441C); assay: LRRK2 kinase function in HEK293T cells over-expressing R1441C-LRRK2, endogenous Rab10 (western blot); conditions: increasing doses of peptide
# T1 construct: expressed in transfected cells; host or cells: HEK293T
# T1 sequence (Q5S007 whole entry R1441C): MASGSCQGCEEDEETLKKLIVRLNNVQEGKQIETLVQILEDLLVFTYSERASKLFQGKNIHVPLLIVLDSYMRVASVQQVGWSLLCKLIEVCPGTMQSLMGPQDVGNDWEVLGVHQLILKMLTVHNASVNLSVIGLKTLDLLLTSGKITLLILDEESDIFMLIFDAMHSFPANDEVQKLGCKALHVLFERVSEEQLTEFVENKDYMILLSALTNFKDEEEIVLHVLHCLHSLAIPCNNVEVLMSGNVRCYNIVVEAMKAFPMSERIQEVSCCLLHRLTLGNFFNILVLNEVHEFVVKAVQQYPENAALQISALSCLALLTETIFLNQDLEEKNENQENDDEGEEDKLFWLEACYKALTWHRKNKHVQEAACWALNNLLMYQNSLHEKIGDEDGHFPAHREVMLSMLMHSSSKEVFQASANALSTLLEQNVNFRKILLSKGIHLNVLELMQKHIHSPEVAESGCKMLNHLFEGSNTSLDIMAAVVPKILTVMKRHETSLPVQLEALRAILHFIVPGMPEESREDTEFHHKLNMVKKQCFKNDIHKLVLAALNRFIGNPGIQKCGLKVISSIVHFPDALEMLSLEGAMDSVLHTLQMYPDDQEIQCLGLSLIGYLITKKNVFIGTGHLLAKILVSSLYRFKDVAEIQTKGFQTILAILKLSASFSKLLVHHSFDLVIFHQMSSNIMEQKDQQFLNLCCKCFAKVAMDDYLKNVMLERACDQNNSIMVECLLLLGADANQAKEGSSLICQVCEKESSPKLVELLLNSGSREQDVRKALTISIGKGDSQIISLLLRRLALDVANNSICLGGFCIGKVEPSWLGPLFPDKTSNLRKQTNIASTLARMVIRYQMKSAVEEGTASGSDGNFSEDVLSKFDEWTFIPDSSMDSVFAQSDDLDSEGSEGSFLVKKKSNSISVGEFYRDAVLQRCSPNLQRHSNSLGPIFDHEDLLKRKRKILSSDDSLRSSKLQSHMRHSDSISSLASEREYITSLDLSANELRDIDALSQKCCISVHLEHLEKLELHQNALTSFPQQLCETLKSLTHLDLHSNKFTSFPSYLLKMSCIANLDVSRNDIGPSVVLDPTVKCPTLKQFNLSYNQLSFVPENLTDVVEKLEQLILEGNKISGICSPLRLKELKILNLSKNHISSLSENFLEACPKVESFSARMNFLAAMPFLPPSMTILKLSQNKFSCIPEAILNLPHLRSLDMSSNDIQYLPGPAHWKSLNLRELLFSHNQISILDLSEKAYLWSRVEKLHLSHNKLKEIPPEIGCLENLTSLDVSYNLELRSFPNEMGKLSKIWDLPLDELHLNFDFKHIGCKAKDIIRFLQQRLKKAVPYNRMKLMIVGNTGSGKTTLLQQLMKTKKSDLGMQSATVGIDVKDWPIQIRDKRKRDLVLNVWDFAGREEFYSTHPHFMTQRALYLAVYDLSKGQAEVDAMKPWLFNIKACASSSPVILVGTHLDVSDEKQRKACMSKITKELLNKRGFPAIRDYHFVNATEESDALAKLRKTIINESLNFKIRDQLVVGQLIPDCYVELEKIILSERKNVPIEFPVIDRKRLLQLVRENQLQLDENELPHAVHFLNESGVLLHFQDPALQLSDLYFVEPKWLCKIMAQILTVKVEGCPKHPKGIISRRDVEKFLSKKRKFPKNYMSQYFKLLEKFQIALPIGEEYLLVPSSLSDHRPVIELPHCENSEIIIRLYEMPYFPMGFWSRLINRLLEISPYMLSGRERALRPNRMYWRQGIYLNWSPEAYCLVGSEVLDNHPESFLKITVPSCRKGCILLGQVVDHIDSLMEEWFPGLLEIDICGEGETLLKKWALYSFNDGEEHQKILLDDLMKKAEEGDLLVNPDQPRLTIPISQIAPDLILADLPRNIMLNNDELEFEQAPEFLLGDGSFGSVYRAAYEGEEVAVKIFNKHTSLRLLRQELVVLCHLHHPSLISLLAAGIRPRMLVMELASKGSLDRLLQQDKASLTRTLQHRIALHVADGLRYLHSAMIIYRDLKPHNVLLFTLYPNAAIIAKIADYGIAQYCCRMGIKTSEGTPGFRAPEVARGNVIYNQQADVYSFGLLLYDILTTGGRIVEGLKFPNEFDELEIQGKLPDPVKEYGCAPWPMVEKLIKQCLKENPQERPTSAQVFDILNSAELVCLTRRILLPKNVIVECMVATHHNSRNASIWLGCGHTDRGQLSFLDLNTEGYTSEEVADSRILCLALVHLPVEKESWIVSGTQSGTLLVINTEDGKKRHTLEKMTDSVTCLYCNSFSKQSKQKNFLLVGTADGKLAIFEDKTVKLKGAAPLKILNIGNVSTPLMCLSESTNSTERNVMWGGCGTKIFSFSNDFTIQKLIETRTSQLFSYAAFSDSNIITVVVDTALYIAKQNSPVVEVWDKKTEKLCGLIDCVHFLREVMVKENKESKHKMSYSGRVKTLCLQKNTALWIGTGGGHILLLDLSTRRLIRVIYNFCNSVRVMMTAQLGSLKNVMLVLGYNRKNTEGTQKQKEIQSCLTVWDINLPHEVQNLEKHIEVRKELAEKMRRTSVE
# Experimental: (§1) Assessment of LRRK2 kinase function. To determine whether peptides targeting the LRRK2-FADD PPI could also alter kinase function, LRRK2 activity was assessed in a cellular setting, through the phosphorylation of an endogenous substrate (pT73-Rab10), as well as auto-phosphorylation (pS1292-LRRK2). […] Parallel cultures were transfected with only WT or R1441C-LRRK2; and endogenous levels of phosphorylated RablO were assessed. Following 72hr of total expression, the cells were washed in cold PBS and collected. Cell lysis was performed using the following buffer: 50mM Tris HCl, pH 7.5; 1mM EGTA; 0.27 M sucrose; 1% Triton X-100; supplemented with protease and phosphatase inhibitor cocktails, and cell extracts stored at -80°C until use. The extracts were separated by SDS-PAGE and proteins transferred to nitrocellulose membranes, which were probed for total/pS1292-LRRK2, total/pT73-Rab10, or β-actin. For quantification, the band intensities for phosphorylated Rab 10 or LRRK2 were normalized to total expression of the respective protein.
# [2] = tested on: HEK293T cells; assay: Cellular uptake of FAM-labeled peptides in HEK293T cells (fluorescence imaging)
# From the text: • FIGs. 1A-1D depict the design and structure of constrained peptides targeting the LRRK2-FADD PPI. (FIG. 1A) Structural representation of the region of the LRRK2 ARM domain in which the FADD-binding motif is located, shown with the fragment of the FADD death domain that binds LRRK2. (FIG. 1B) Highlight schematic of the relevant binding domains within LRRK2 and FADD, and the corresponding amino acid sequence that mediates this PPI is highlighted. (FIG. 1C) Schematic representation of the solid phase peptide synthesis, highlighting the placement of the synthetic amino acids for the placement of the peptide staple. (FIG. 1D) Sequences of the five stapled peptides synthesized, with the position of the synthetic residues in each peptide indicated by an asterisk. • FIGs. 2A-2B depict the cellular uptake of stapled vs. native peptides. (FIG. 2A) HEK293T cells were incubated with 5 µM of non-stapled control or constrained FARMS for a period of 24 hr. […] In the eluate, a dose-dependent reduction of FADD was detected with increasing concentrations of FARMS. […] (FIG. 4B) The percentage of transfected neurons with apoptotic nuclear features was determined in a blinded fashion. […] (FIG. 5B) The band intensities in FIG. 5A were quantified using Image J (n=2). […] (FIG. 5C) Phosphorylation of endogenous RablO in HEK293T cells by over-expressed WT or R1441C-LRRK2 was determined by Western blot, as in FIG. 5A. […]
# [3] = target: T2, G2019S-LRRK2 (Homo sapiens, UniProt Q5S007, G2019S); assay: LRRK2 kinase function in HEK293T cells co-transfected with G2019S-LRRK2 and Flag-Rab10 (western blot); conditions: G2019S-LRRK2 + Rab10, peptide at indicated concentrations, 24hr
# T2 construct: expressed in transfected cells; host or cells: HEK293T
# T2 sequence (Q5S007 whole entry G2019S): as the sequence (Q5S007 whole entry R1441C) above, with C1441R, G2019S counted along it
# Experimental: Since the peptides were designed to block LRRK2 from interacting with FADD, they should not have any effect on the catalytic kinase activity of LRRK2. To determine whether the PPI-disrupting FARMS peptide alters LRRK2 kinase activity in cells, HEK293T cells were co-transfected with WT or G019S-LRRK2 together with Rab10. Cells over-expressing mutant LRRK2 and human WT RablO were treated with FARMS and the cell extracts were probed for multiple indices of LRRK2 kinase activity including phosphorylated Rab10 and pS1292-LRRK2.
# as §1, with “The extracts were separated by SDS-PAGE and proteins transferred to nitrocellulose membranes, which were probed for total/pS1292-LRRK2, total/pT73-Rab10, or β-actin.” left out
substance,measurement,setting,value
"FARM5: FAM-labeled hydrocarbon-stapled FADD Armadillo domain peptide; mass fits SEQ ID NO. 6 KVADLVQEVQQAXDLQXRSK ({FAM-PEG3′}-KVADLVQEVQQA[S5]DLQ[S5]RSK-NH2; staple 13-17; also: FAM label, optionally 5(6)FAM-PEG3 on N-terminal lysine) [FAM-labeled hydrocarbon-stapled FADD Armadillo domain peptide; 6 …XDLQXRSK]",phosphorylation of endogenous Rab10 (pT73) by R1441C-LRRK2,[1],un-affected
same,cellular uptake (permeation of cells),"[2]; 5 µM FAM-labeled peptide, 24 hr",clear diffuse fluorescent signal along with a few visible puncta was observed throughout cells
same,dose-dependency of uptake of FAM-labeled peptide,"[2]; 0.1 or 10 µM, 24hr",dose-dependent
same,phosphorylation of over-expressed Rab10 (pT73),[3],unexpected increase
same,auto-phosphorylation of LRRK2 at Ser1292 (pS1292-LRRK2),[3]; listed as FARMS,any loss in phosphorylation of pS1292-LRRK2 or RablO could be detected; also recorded: un-affected
